In the supplement of paper PMC11316812:
± gives the standard deviation of the averaged measurements.

Tests used:
[1] = system: hTERT-HMEC; assay: percentage of EdU-negative (G0-arrested) nuclei per well, 72 h; higher = more G0 arrest; details: reference: sequence is the full UniProt precursor, the tested protein was the secreted form or ectodomain
[2] = system: MCF7; assay: as above; details: reference: sequence is the full UniProt precursor, the tested protein was the secreted form or ectodomain
[3] = protein concentration 0.0357143 µM
[4] = protein concentration 0.357143 µM
[5] = protein concentration 0.01325 µM
[6] = protein concentration 0.1325 µM
[7] = protein concentration 0.0225 µM
[8] = protein concentration 0.0171429 µM
[9] = protein concentration 0.171429 µM
[10] = protein concentration 0.03125 µM
[11] = protein concentration 0.3125 µM
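Further: secreted proteins added to cultured cells, EdU pulse at the end, nuclei found by Hoechst imaging, EdU status from nuclear versus surrounding ring intensity ratio, PBS as neutral control.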

MTPPERLFLPRVCGTTLHLLLLGLLLVLLPGAQGLPGVGLTPSAAQTARQHPKMHLAHSTLKPAAHLIGDPSKQNSLLWRANTDRAFLQDGFSLSNNSLLVPTSGIYFVYSQVVFSGKAYSPKATSSPLYLAHEVQLFSSQYPFHVPLLSSQKMVYPGLQEPWLHSMYHGAAFQLTQGDQLSTHTDGIPHLVLSPSTVFFGAFAL
percentage of EdU-negative [1, 3]: 6.4 ± 0.43%
percentage of EdU-negative [1, 4]: 6.94 ± 0.51%
percentage of EdU-negative [2, 3]: 35.3 ± 2.4%
percentage of EdU-negative [2, 4]: 42.8 ± 0.91%

MTPPKLRASLSPSLLLLLSGCLLAAARREKGAASNVAEPVPGPTGGSSGRFLSPEQHACSWQLLLPAPEAAAGSELALRCQSPDGARHQCAYRGHPERCAAYAARRAHFWKQVLGGLRKKRRPCHDPAPLQARLCAGKKGHGAELRLVPRASPPARPTVAGFAGESKPRARNRGRTRERASGPAAGTPPPQSAPPKENPSERKTNEGKRKAALVPNEERPMGTGPDPDGLDGNAELTETYCAEKWHSLCNFFVNFWNG [Q8TAT2]
percentage of EdU-negative [1, 5]: 4.87 ± 0.1%
percentage of EdU-negative [1, 6]: 6.22 ± 0.9%
percentage of EdU-negative [2, 5]: 25.1 ± 0.15%
percentage of EdU-negative [2, 6]: 27.7 ± 1.3%

MTPPPPGRAAPSAPRARVPGPPARLGLPLRLRLLLLLWAAAASAQGHLRSGPRIFAVWKGHVGQDRVDFGQTEPHTVLFHEPGSSSVWVGGRGKVYLFDFPEGKNASVRTVNIGSTKGSCLDKRDCENYITLLERRSEGLLACGTNARHPSCWNLVNGTVVPLGEMRGYAPFSPDENSLVLFEGDEVYSTIRKQEYNGKIPRFRRIRGESELYTSDTVMQNPQFIKATIVHQDQAYDDKIYYFFREDNPDKNPEAPLNVSRVAQLCRGDQGGESSLSVSKWNTFLKAMLVCSDAATNKNFNRLQDVFLLPDPSGQWRDTRVYGVFSNPWNYSAVCVYSLGDIDKVFRTSSLKGYHSSLPNPRPGKCLPDQQPIPTETFQVADRHPEVAQRVEPMGPLKTPLFHSKYHYQKVAVHRMQASHGETFHVLYLTTDRGTIHKVVEPGEQEHSFAFNIMEIQPFRRAAAIQTMSLDAERRKLYVSSQWEVSQVPLDLCEVYGGGCHGCLMSRDPYCGWDQGRCISIYSSERSVLQSINPAEPHKECPNPKPDKAPLQKVSLAPNSRYYLSCPMESRHATYSWRHKENVEQSCEPGHQSPNCILFIENLTAQQYGHYFCEAQEGSYFREAQHWQLLPEDGIMAEHLLGHACALAASLWLGVLPTLTLGLLVH
percentage of EdU-negative [1, 7]: 4.66 ± 0.25%
percentage of EdU-negative ([1]; protein concentration 0.225 µM): 5.49 ± 0.49%
percentage of EdU-negative [2, 7]: 24.7 ± 2.4%
percentage of EdU-negative ([2]; protein concentration 0.225 µM): 25.6 ± 1.6%

MTPPRLFWVWLLVAGTQGVNDGDMRLADGGATNQGRVEIFYRGQWGTVCDNLWDLTDASVVCRALGFENATQALGRAAFGQGSGPIMLDEVQCTGTEASLADCKSLGWLKSNCRHERDAGVVCTNETRSTHTLDLSRELSEALGQIFDSQRGCDLSISVNVQGEDALGFCGHTVILTANLEAQALWKEPGSNVTMSVDAECVPMVRDLLRYFYSRRIDITLSSVKCFHKLASAYGARQLQGYCASLFAILLPQDPSFQMPLDLYAYAVATGDALLEKLCLQFLAWNFEALTQAEAWPSVPTDLLQLLLPRSDLAVPSELALLKAVDTWSWGERASHEEVEGLVEKIRFPMMLPEELFELQFNLSLYWSHEALFQKKTLQALEFHTVPFQLLARYKGLNLTEDTYKPRIYTSPTWSAFVTDSSWSARKSQLVYQSRRGPLVKYSSDYFQAPSDYRYYPYQSFQTPQHPSFLFQDKRVSWSLVYLPTIQSCWNYGFSCSSDELPVLGLTKSGGSDRTIAYENKALMLCEGLFVADVTDFEGWKAAIPSALDTNSSKSTSSFPCPAGHFNGFRTVIRPFYLTNSSGVD
percentage of EdU-negative [1, 8]: 6.12 ± 0.82%
percentage of EdU-negative [1, 9]: 8.84 ± 1.8%
percentage of EdU-negative [2, 8]: 23.8 ± 3.7%
percentage of EdU-negative [2, 9]: 27.9 ± 1.7%

MTPSRLPWLLSWVSATAWRAARSPLLCHSLRKTSSSQGGKSELVKQSLKKPKLPEGRFDAPEDSHLEKEPLEKFPDDVNPVTKEKGGPRGPEPTRYGDWERKGRCIDF [Q5VUM1]
percentage of EdU-negative [1, 7]: 5.46 ± 0.82%
percentage of EdU-negative ([1]; protein concentration 0.225 µM): 5.79 ± 0.17%
percentage of EdU-negative [2, 7]: 28 ± 2.2%
percentage of EdU-negative ([2]; protein concentration 0.225 µM): 25.4 ± 1.5%

MTRALCSALRQALLLLAAAAELSPGLKCVCLLCDSSNFTCQTEGACWASVMLTNGKEQVIKSCVSLPELNAQVFCHSSNNVTKTECCFTDFCNNITLHLPTASPNAPKLGPMELAIIITVPVCLLSIAAMLTVWACQGRQCSYRKKKRPNVEEPLSECNLVNAGKTLKDLIYDVTASGSGSGLPLLVQRTIARTIVLQEIVGKGRFGEVWHGRWCGEDVAVKIFSSRDERSWFREAEIYQTVMLRHENILGFIAADNKDNGTWTQLWLVSEYHEQGSLYDYLNRNIVTVAGMIKLALSIASGLAHLHMEIVGTQGKPAIAHRDIKSKNILVKKCETCAIADLGLAVKHDSILNTIDIPQNPKVGTKRYMAPEMLDDTMNVNIFESFKRADIYSVGLVYWEIARRCSVGGIVEEYQLPYYDMVPSDPSIEEMRKVVCDQKFRPSIPNQWQSCEALRVMGRIMRECWYANGAARLTALRIKKTISQLCVKEDCKA [Q8NER5]
percentage of EdU-negative [1, 10]: 4.41 ± 0.6%
percentage of EdU-negative [1, 11]: 4.47 ± 0.65%
percentage of EdU-negative [2, 10]: 24.6 ± 0.8%
percentage of EdU-negative [2, 11]: 26 ± 0.41%
